The data set addresses cation-independent mannose-6-phosphate receptor (CIMPR) on fibroblast cells (UniProt P11717).

Chain of cation-independent mannose-6-phosphate receptor (CIMPR) on fibroblast cells (P11717 41-2491): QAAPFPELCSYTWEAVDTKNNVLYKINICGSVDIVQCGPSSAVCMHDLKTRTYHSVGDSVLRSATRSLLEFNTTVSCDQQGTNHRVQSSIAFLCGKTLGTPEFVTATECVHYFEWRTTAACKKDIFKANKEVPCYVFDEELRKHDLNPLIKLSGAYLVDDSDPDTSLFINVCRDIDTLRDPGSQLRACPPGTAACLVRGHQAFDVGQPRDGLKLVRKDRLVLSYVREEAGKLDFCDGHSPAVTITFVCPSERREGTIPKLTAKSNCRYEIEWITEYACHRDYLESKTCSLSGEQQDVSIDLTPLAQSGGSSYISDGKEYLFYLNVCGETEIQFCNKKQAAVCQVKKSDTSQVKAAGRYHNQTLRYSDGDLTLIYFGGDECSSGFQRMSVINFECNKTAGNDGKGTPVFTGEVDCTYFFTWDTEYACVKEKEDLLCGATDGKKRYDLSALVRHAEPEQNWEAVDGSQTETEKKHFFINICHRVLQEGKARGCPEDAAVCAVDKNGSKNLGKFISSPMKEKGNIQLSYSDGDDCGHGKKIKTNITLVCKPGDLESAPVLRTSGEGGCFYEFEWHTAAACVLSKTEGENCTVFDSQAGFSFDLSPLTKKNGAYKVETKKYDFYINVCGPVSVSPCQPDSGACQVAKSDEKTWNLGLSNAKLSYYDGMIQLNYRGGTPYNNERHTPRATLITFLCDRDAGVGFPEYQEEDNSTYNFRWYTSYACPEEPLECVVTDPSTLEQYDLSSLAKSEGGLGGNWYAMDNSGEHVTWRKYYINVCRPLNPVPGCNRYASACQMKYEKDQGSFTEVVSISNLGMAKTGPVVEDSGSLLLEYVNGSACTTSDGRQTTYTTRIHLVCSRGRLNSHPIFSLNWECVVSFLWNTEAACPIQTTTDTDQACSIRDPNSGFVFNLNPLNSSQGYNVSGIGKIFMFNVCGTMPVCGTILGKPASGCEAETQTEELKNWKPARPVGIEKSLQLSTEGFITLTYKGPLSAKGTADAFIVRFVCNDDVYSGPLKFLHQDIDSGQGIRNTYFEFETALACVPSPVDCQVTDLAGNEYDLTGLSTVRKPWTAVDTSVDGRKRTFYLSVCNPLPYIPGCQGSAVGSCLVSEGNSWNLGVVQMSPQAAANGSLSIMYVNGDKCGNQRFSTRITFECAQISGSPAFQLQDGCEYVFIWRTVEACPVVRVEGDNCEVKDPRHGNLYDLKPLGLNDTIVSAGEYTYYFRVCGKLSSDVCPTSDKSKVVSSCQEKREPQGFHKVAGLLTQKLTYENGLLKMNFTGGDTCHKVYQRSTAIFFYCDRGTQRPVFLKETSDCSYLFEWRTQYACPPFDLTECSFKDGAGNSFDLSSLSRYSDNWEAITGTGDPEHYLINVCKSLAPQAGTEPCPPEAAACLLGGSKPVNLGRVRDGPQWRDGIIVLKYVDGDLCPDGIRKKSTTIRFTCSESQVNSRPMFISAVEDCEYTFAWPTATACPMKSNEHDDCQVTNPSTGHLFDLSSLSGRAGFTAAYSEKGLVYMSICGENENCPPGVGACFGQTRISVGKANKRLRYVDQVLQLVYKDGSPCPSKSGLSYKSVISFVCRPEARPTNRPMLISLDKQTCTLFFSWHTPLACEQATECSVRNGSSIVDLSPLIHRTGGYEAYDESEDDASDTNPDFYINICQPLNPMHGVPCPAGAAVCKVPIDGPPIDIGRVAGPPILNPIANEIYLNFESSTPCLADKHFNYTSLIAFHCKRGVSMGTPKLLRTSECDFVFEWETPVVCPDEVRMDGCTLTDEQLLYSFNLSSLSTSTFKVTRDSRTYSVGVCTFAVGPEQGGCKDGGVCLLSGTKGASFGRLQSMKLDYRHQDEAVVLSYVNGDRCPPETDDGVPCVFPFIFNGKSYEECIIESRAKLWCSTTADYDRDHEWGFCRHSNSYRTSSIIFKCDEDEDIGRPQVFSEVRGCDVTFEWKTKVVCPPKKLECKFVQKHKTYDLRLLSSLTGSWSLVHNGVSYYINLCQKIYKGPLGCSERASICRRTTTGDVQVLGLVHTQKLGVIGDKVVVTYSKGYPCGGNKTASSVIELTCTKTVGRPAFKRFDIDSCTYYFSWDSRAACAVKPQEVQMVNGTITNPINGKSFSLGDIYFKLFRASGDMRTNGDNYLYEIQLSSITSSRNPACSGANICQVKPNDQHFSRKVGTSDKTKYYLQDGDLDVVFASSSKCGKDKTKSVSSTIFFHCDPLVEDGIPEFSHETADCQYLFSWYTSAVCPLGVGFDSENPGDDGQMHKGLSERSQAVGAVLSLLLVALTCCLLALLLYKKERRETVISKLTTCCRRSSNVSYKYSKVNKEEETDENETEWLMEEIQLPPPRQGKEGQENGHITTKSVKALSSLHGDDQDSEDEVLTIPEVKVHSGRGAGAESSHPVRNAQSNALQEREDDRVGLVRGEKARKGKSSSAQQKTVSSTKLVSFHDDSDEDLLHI

Turning to “LUMIZYME® (alglucosidase alfa, conventional rhGAA product)”, the “stated: internalized (GAA activity inside CRL 2076 normal fibroblasts)” value was “The curve labelled Alglucosidase Alfa rises gradually from 0: about 8 at about 10 nM, about 16 at about 27 nM and about 23 at about 80 nM. It reaches about 35 nmol/mg protein/hr at about 240 nM, where it meets the ATB200 curve. The +M6P point (square) at about 240 nM lies at about 1, on the zero lin”; the “stated: internalized (GAA activity inside PM25 Pompe fibroblasts)” value is “The curve labelled Alglucosidase Alfa rises gradually from 0: about 7 at about 10 nM, about 13 at about 27 nM and about 26 at about 80 nM. It reaches about 37 nmol/mg protein/hr at about 240 nM and stays below the ATB200 curve throughout. The +M6P points at about 245 nM lie at about 1-4, near the ze”.

Consider “ATB200 recombinant human acid α-glucosidase (rhGAA)”, for which the “stated: internalized (GAA activity inside CRL 2076 normal fibroblasts)” value is reported as “The curve labelled ATB200 rises steeply from 0 to about 33 nmol/mg protein/hr at about 25 nM. It then stays on a plateau of about 34 up to about 240 nM. The +M6P point (triangle) at about 240 nM lies at about 5, near the zero line”; the “stated: internalized (GAA activity inside PM25 Pompe fibroblasts)” value was “The curve labelled ATB200 rises steeply from 0 to about 30 at about 10 nM and about 36 at about 27 nM. The fitted plateau is about 41 nmol/mg protein/hr from about 80 nM. The last point, at about 240 nM, is about 45. The +M6P points at about 245 nM lie at about 1-4, near the zero line”.

The values are drawn from patent US20260207718.
